Assay results taken from PMC10372576 (Proceedings of the National Academy of Sciences of the …, 2023).

Target: T1, S.c. Mon1–Ccz1 complex (wild type) (Saccharomyces cerevisiae, UniProt P53129;P38273)
T1 sequence 1: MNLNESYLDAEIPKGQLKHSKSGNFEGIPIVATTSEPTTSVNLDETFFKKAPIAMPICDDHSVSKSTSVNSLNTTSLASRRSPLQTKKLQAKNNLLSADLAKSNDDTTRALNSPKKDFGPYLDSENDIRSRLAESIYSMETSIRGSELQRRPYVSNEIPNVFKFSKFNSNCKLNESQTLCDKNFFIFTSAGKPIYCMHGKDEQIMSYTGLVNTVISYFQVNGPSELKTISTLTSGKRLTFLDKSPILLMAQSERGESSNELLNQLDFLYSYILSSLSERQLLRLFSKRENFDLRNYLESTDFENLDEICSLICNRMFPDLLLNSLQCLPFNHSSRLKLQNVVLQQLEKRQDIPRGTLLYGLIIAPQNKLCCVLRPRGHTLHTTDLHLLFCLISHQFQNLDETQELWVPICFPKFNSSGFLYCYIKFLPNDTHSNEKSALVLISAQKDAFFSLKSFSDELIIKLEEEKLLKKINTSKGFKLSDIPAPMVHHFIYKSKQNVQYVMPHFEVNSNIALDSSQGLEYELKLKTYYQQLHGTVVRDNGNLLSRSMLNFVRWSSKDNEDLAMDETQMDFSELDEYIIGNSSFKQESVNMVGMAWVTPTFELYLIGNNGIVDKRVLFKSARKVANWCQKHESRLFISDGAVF
T1 sequence 2: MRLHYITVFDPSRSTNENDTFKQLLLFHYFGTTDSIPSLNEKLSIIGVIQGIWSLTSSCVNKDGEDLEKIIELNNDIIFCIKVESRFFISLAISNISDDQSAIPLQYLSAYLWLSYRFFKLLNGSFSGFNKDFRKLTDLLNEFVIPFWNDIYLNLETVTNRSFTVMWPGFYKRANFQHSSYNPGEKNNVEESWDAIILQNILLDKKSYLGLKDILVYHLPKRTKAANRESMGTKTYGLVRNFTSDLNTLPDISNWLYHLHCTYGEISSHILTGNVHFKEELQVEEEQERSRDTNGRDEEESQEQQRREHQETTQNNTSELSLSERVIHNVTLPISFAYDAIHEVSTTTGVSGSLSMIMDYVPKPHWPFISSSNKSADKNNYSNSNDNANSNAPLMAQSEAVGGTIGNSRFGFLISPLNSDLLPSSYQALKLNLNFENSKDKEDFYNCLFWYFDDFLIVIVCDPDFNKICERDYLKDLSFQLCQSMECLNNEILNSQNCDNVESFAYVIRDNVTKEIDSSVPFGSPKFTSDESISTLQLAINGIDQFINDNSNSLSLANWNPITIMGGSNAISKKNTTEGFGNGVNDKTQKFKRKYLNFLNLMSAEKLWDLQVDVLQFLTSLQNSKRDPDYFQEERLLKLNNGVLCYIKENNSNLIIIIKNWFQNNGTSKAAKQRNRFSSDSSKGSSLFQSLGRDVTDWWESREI
Assay: pull-down

binding result: binds
B1: GST-Ypt10 (natural protein)
chain: MEATIKVVLLGDSSVGKTSIVTRLKSGKFLAKHAATIGAAFITKTIEVPSNDSSTEKRIHMEIWDTAGQERYKSLVPMYYRDANIALIVFELGDVSSLQCAKTWFQDLQDRAQGTQVIIVGNKYDLVCEEHSGEVTIPAELQGLPYVAVSAKTGYNFDTLNKIIISLVPESQFKTLSKNNEQGNILEINKKKSGSGCIC
